According to patent US20210261648A1 (published 2021):
Where a chain is given by its changes, count along the chain named.

T1: FcγRIIb (human, UniProt P31994 43-217)
T1 construct: extracellular domain; also called FcgRIIb; CD32B
T1 sequence (looked up): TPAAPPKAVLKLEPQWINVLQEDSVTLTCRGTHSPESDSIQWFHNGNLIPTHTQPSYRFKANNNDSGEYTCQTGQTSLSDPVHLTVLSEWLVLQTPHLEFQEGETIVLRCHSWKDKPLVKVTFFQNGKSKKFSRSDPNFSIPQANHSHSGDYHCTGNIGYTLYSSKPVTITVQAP

T2: FcγRIIa type R (human, UniProt P12318 34-217)
T2 chain: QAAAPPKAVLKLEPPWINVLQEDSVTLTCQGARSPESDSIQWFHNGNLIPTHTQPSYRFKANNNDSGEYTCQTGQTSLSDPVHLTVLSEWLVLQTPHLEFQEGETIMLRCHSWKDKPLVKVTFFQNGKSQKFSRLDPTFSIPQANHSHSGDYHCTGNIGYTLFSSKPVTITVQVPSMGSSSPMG

T3: FcγRIIb extracellular domain with C-terminal His tag (human, UniProt P31994 43-217)
T3 construct: extracellular domain; For crystallography it was expressed with kifunensine and trimmed with Endo F1; also called FcgRIIb; FcγRIIb extracellular region; not shown: His tag attached to the C terminus
T3 sequence (looked up): T1 sequence (looked up)

T4: FcγRIIa type H extracellular domain with C-terminal His tag (human, UniProt P12318 34-217)
T4 construct: extracellular domain; also called FcγRIIaH; FcgRIIaH; not shown: His tag attached to the C terminus
T4 sequence (looked up): T2 chain with R134H

T5: FcγRIIa type H (human, UniProt P12318 34-217)
T5 construct: extracellular domain; also called FcγRIIaH; FcgRIIaH
T5 sequence (looked up): T2 chain with R134H

B1: IL6R-BP540/IL6R-L (antibody, human IgG1, kappa)
heavy: QVQLQESGPGLVKPSETLSLTCAVSGHSISHDHAWSWVRQPPGEGLEWIGFISYSGITNYNPSLQGRVTISRDNSKNTLYLQMNSLRAEDTAVYYCARSLARTTAMDYWGEGTLVTVSSASTKGPSVFPLAPSSKSTSGGTAALGCLVKDYFPEPVTVSWNSGALTSGVHTFPAVLQSSGLYSLSSVVTVPSSSLGTQTYICNVNHKPSNTKVDKKVEPKSCDKTHTCPPCPAPELLGDDSVFLFPPKPKDTLMISRTPEVTCVVIDVSEEDGPVKFNWYVDGVEVHNAKTKPREEQDNSTYRVVSVLTVLHQDWLNGKEYKCKVSNKALPRPIEKTISKAKGQPREPQVYTLPPSRDELTKNQVSLTCLVKGFYPSDIAVEWESNGQPENNYKTTPPVLDSDGSFFLYSKLTVDKSRWQQGNVFSCSVMHEALHNHYTQESLSLSP
light: not shown
notes: Alterations in EU numbering, introduced into IL6R-B3
B2: IL6R-BP556/IL6R-L (antibody, human IgG1, kappa)
heavy: B1 heavy with S269G, P274E
light: not shown
notes: as for B1
B3: IL6R-BP551/IL6R-L (antibody, human IgG1, kappa)
heavy: B1 heavy with P274D
light: not shown
notes: as for B1
B4: IL6R-BP550/IL6R-L (antibody, human IgG1, kappa)
heavy: B1 heavy with S269G, P274D
light: not shown
notes: as for B1
B5: IL6R-2B128/IL6R-L (antibody, human IgG1, kappa)
heavy: B1 heavy with D239G, I266V, E270H, G273P, P274E, R332A
light: not shown
notes: Alterations introduced into IL6R-B3
B6: IL6R-BP106/IL6R-L (antibody, human IgG1, kappa)
heavy: B1 heavy with D239G, I266V, E270D, G273P, P274E, D298Y, R332A
light: not shown
notes: as for B5
B7: IL6R-BP117/IL6R-L (antibody, human IgG1, kappa)
heavy: B1 heavy with D239G, I266V, E270H, G273P, P274E, D298Y, K328D, R332A
light: not shown
notes: as for B5
B8: IL6R-BP103/IL6R-L (antibody, human IgG1, kappa)
heavy: B1 heavy with D239G, I266V, S269V, E270H, G273P, P274E, D298Y, R332A
light: not shown
notes: as for B5
B9: IL6R-BP119/IL6R-L (antibody, human IgG1, kappa)
heavy: B1 heavy with D239G, I266V, E270H, G273P, P274E, D298Y, K328M, R332A
light: not shown
notes: as for B5
B10: IL6R-BP110/IL6R-L (antibody, human IgG1, kappa)
heavy: B1 heavy with D239G, I266V, E270N, G273P, P274E, D298Y, R332A
light: not shown
notes: as for B5
B11: IL6R-2B169/IL6R-L (antibody, human IgG1, kappa)
heavy: B1 heavy with D239G, I266V, E270H, G273P, P274E, D298Y, V325I, R332A
light: not shown
notes: as for B5
B12: IL6R-BP121/IL6R-L (antibody, human IgG1, kappa)
heavy: B1 heavy with D239G, I266V, E270H, G273P, P274E, D298Y, K328Q, R332A
light: not shown
notes: as for B5
B13: IL6R-2B171/IL6R-L (antibody, human IgG1, kappa)
heavy: B1 heavy with D239G, I266V, E270H, G273P, P274E, D298Y, V325L, R332A
light: not shown
notes: as for B5
B14: IL6R-BP118/IL6R-L (antibody, human IgG1, kappa)
heavy: B1 heavy with D239G, I266V, E270H, G273P, P274E, D298Y, K328S, R332A
light: not shown
notes: as for B5
B15: IL6R-BP911/IL6R-L (antibody, human IgG1, kappa)
heavy: B1 heavy with D239G, I266V, E270H, G273P, P274E, D298Y, R332K
light: not shown
notes: as for B5
B16: IL6R-BP078/IL6R-L (antibody, human IgG1, kappa)
heavy: B1 heavy with D239G, I266V, E270H, G273P, P274E, D298Y, R332M
light: not shown
notes: as for B5
B17: IL6R-2B002/IL6R-L (antibody, human IgG1, kappa)
heavy: B1 heavy with E235D, D239G, I266V, E270H, G273P, P274E, D298Y, R332A
light: not shown
notes: as for B5
B18: IL6R-BP102/IL6R-L (antibody, human IgG1, kappa)
heavy: B1 heavy with D239G, I266V, S269Q, E270H, G273P, P274E, D298Y, R332A
light: not shown
notes: as for B5
B19: IL6R-BP126/IL6R-L (antibody, human IgG1, kappa)
heavy: B1 heavy with D239G, I266V, E270H, G273P, P274E, D298Y, K328L, R332A
light: not shown
notes: as for B5
B20: IL6R-BP100/IL6R-L (antibody, human IgG1, kappa)
heavy: B1 heavy with D239G, I266V, S269A, E270H, G273P, P274E, D298Y, R332A
light: not shown
notes: as for B5
B21: IL6R-BP107/IL6R-L (antibody, human IgG1, kappa)
heavy: B1 heavy with D239G, I266V, G273P, P274E, D298Y, R332A
light: not shown
notes: as for B5
B22: IL6R-BP136/IL6R-L (antibody, human IgG1, kappa)
heavy: B1 heavy with D239G, I266V, E270H, G273P, P274E, D298Y, K328A, R332A
light: not shown
notes: as for B5
B23: IL6R-2B172/IL6R-L (antibody, human IgG1, kappa)
heavy: B1 heavy with D239G, I266V, E270H, G273P, P274E, D298Y, V325M, R332A
light: not shown
notes: as for B5
B24: IL6R-BP116/IL6R-L (antibody, human IgG1, kappa)
heavy: B1 heavy with D239G, I266V, E270H, G273P, P274E, D298Y, K328T, R332A
light: not shown
notes: as for B5
B25: IL6R-BP112/IL6R-L (antibody, human IgG1, kappa)
heavy: B1 heavy with D239G, I266V, E270H, P274E, D298Y, R332A
light: not shown
notes: as for B5
B26: IL6R-BP142/IL6R-L (antibody, human IgG1, kappa)
heavy: B1 heavy with D239G, I266V, E270H, G273P, P274E, D298Y, K328N, R332A
light: not shown
notes: as for B5

Target: T1, FcγRIIb
Experiment: SPR (Biacore); parent = IL6R-B3/IL6R-L

KD(IIb) of the parent polypeptide/KD(IIb) of the altered polypeptide [fold]	Binder
541	B1
370	B2
482	B3
406	B4

Target: T2, FcγRIIa type R
Experiment: SPR (Biacore); parent = IL6R-B3/IL6R-L

KD(IIaR) of the parent polypeptide/KD(IIaR) of the altered polypeptide [fold]	Binder
5.2	B1
3.7	B2
4.5	B3
3.3	B4

Target: T6, FcγRIa extracellular domain with C-terminal His tag (human, UniProt P12314 16-292)
T6 construct: also called FcgRIa; not shown: His tag attached to the C terminus
Experiment: SPR binding amount, relative to IL6R-BF648/IL6R-L

T6 sequence (P12314 16-292): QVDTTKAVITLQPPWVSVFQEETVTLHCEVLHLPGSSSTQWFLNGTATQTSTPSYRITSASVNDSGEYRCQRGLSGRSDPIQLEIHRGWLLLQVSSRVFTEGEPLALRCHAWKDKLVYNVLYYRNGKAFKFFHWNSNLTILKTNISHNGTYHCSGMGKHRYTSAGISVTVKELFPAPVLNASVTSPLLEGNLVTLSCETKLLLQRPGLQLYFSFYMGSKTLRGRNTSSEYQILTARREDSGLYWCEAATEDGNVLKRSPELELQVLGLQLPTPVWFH

relative binding activity (IL6R-BF648/IL6R-L = 100)	Binder
95	B5
127	B6
124	B7
56	B8
117	B9
105	B10
73	B11
118	B12
116	B13
101	B14
52	B15
106	B16
118	B17
104	B18
113	B19
121	B20
123	B21
117	B22
140	B23
110	B24
119	B25
98	B26

Target: T3, FcγRIIb extracellular domain with …
Experiment: SPR binding amount, relative to IL6R-BF648/IL6R-L

relative binding activity (IL6R-BF648/IL6R-L = 100)	Binder
103	B5
116	B6
118	B7
107	B8
110	B9
101	B10
104	B11
113	B12
113	B13
104	B14
119	B15
105	B16
116	B17
106	B18
103	B19
110	B20
118	B21
119	B22
132	B23
108	B24
157	B25
106	B26

Target: T4, FcγRIIa type H extracellular domain …
Experiment: SPR binding amount, relative to IL6R-BF648/IL6R-L

relative binding activity (IL6R-BF648/IL6R-L = 100)	Binder
37	B5
110	B6
96	B7
69	B8
133	B9
127	B10
83	B11
135	B12
115	B13
128	B14
108	B15
89	B16
147	B17
66	B18
132	B19
128	B20
114	B21
103	B22
179	B23
110	B24
113	B25
97	B26

Target: T7, FcγRIa (human, UniProt P12314 16-292)
T7 construct: Whole entry named; also called FcgRIa; CD64A
Experiment: SPR (Biacore), captured antibody, soluble FcγR

T7 sequence (P12314 16-292): as above

Kd [nM]	Binder
96	B1
43	B2
32	B3
25	B4

Target: T5, FcγRIIa type H
Experiment: SPR (Biacore), captured antibody, soluble FcγR

Kd [nM]	Binder
4600	B1
5800	B2
2800	B3
5000	B4

Target: T1, FcγRIIb
Experiment: SPR (Biacore), captured antibody, soluble FcγR

Kd [nM]	Binder
5.7	B1
8.4	B2
6.4	B3
7.6	B4

Target: T2, FcγRIIa type R
Experiment: SPR (Biacore), captured antibody, soluble FcγR

Kd [nM]	Binder
210	B1
300	B2
250	B3
340	B4
